In patent publication US20090246142:

What was measured:
[1] = test system: T1, TAMRA-(Ahx)SRVGEEEHVYSFPNKQKSAEC-CONH2 (unphosphorylated Abl substrate derived from paxillin) on nanoparticles (Y-Abl TSACs)
T1 sequence: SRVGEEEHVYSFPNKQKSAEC

[2] = test system: MMP-2 cleavable peptide substrate KGPLGVRGC, PEG on the lysine, on biotin and NeutrAvidin nanoparticles (Example 1)
[3] = test system: MMP-2 substrate G-K(TAMRA)-G-P-L-G-V-R-G-C-CONH2 with 20 kDa PEG, on ligand (biotin) TSACs (Example 3)
[4] = test system: MMP-7 substrate G-K(TAMRA)-G-V-P-L-S-L-T-M-G-C-CONH2 with 20 kDa PEG, on receptor (NeutrAvidin) TSACs (Example 3)
[5] = test system: MMP-7-MMP-2 tandem substrate TAMRA-G-K-G-V-P-L-S-L-T-M-Ahx-G-P-L-G-V-R-G-C-CONH2 with 20 kDa PEG, on ligand (biotin) TSACs (Example 3)

Chain of recombinant catalytic domain of matrix metalloproteinase-2 (MMP-2; Biomol) (chain, as listed by the source): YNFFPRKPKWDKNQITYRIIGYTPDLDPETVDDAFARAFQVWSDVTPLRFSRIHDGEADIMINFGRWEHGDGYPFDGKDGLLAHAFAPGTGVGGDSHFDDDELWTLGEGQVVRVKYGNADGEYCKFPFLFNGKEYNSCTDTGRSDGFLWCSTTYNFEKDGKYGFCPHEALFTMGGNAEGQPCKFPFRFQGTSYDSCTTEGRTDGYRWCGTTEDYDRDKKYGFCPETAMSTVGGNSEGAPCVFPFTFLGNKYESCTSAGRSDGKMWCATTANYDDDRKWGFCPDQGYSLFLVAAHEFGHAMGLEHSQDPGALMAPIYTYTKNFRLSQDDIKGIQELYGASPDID

| Substance | TSAC assembly in DLS (hydrodynamic radius) [1] | lowest kinase amount giving quantifiable T2 relaxation enhancement (MRI) [1] | TSAC assembly (extinction at 600 nm, AFM) [2] | lowest MMP-2 concentration detected by T2 relaxation (MRI) [2] | TSAC assembly in DLS [3] | TSAC assembly in DLS [4] | hydrodynamic radius increase in DLS [5] |
| --- | --- | --- | --- | --- | --- | --- | --- |
| Abl kinase (New England Biolabs) | Abl kinase rapidly directed assembly in solutions containing Y-Abl TSACs with SH2 TSACs | as little as 11 fentomoles of added kinase (110 pM kinase concentrations=0.05 U/µl | – | – | – | – | – |
| recombinant catalytic domain of matrix metalloproteinase-2 (MMP-2; Biomol) | – | – | The TSACs with the scrambled peptide exhibit markedly decreased assembly compared to the specific peptide sequence | TSACs at a 10 pM concentration were sensitive to at least 170 ng/ml (9.4 U/ml) of MMP-2 | Addition of 0.4 µg MMP-2 actuates TSAC assembly, while 0.4 µg MMP-7 or no enzyme is insufficient | addition of 0.4 µg MMP-7 induces assembly, while 0.4 µg MMP-2 cannot | Hydrodynamic radii increased more than 5-fold in the presence of either enzyme or both enzymes |
